Data on one substance can be found in article PMC10500007.

As a reminder, the pKd is −log10 of the Kd, conventionally taken in molar units. A lower pKd goes with a large Kd. Usually koff stands for the first-order rate constant of dissociation. Low readings indicate slow dissociation, high ones fast dissociation. The kon is the second-order rate constant of association. Lower therefore signals slow association.

Some targets named below: av6_3 A39K; av6_3 E13TG64R; av6_3 E13TM15RA39KG64R; av6_3 E13TM15RA39K; av6_3 G64R; av6_3 M15RG64R; av6_3 M15R.
What all share (assay): BLI; Octet RED96; His-tagged or Avi-tagged minibinder immobilised on Ni-NTA or streptavidin tips, dipped into titrations of integrin; association 900 s, dissociation 1200 s
For orientation: In BLI a coated tip is dipped into the sample, and binding shifts an interference pattern.

pKd: −log10 of the molar value.

Chain of av6_3 G64R (main, as listed by the source G64R): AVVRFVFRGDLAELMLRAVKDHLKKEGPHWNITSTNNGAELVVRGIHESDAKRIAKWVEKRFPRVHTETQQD
Chain of av6_3 M15RG64R (main, as listed by the source): as the sequence (main, as listed by the source G64R) above, with M15R counted along it
Chain of av6_3 M15R (main, as listed by the source M15R): as the sequence (main, as listed by the source G64R) above, with M15R, R64G counted along it
Chain of av6_3 E13TM15RA39K (main, as listed by the source): as the sequence (main, as listed by the source G64R) above, with E13T, M15R, A39K, R64G counted along it
Chain of av6_3 E13TG64R (main, as listed by the source): as the sequence (main, as listed by the source G64R) above, with E13T counted along it
Chain of av6_3 A39K (main, as listed by the source A39K): as the sequence (main, as listed by the source G64R) above, with A39K, R64G counted along it
Chain of av6_3 E13TM15RA39KG64R (main, as listed by the source): as the sequence (main, as listed by the source G64R) above, with E13T, M15R, A39K counted along it

“human integrin αvβ6 (soluble, BLI analyte) (from UniProt P06756 31-1048; P18564 22-709) (receptor)”: the pKd is 9.19 with av6_3 A39K; 9.10 with av6_3 E13TG64R; 9.10 with av6_3 E13TM15RA39KG64R; 8.97 with av6_3 E13TM15RA39K; 9.02 with av6_3 G64R; 9.13 with av6_3 M15RG64R. In the experiment with av6_3 M15R, this substance showed a pKd of 9.42. Further, the koff with av6_3 A39K is 8.16e-05 s⁻¹; with av6_3 E13TG64R it was 8.87e-05 s⁻¹; in the experiment with av6_3 E13TM15RA39KG64R it was 8.31e-05 s⁻¹; with av6_3 E13TM15RA39K, 9.1e-05 s⁻¹; with av6_3 G64R, 0.000134 s⁻¹; with av6_3 M15RG64R, 7.71e-05 s⁻¹. This substance also came in with a koff with av6_3 M15R of 6.65e-05 s⁻¹. Besides, the kon is 127000 M⁻¹ s⁻¹ with av6_3 A39K; 112000 M⁻¹ s⁻¹ with av6_3 E13TG64R; 104000 M⁻¹ s⁻¹ with av6_3 E13TM15RA39KG64R; 84300 M⁻¹ s⁻¹ in the experiment with av6_3 E13TM15RA39K; 141000 M⁻¹ s⁻¹ with av6_3 G64R; 104000 M⁻¹ s⁻¹ in the experiment with av6_3 M15RG64R. For the same substance, the on-rate (kon) with av6_3 M15R turned out to be 175000 M⁻¹ s⁻¹.
